Where a chain is given by its changes, count along the chain named. Values joined by “and” are separate entries in the source; they are usually repeats but may differ in a detail not shown here. Equal entries are not always repeated. Where two headings read alike, the source gives them in different places.

One may read the Km as the substrate concentration at which the rate is half of its maximum.

Data set [1] addresses T1, αβ^Cys105 mutant sGC (Homo sapiens, UniProt Q02108+Q02153, H105C).
T1 construct: made in house; host or cells: Sf9 cells (baculovirus)
T1 sequence (Q02153 1-619 H105C): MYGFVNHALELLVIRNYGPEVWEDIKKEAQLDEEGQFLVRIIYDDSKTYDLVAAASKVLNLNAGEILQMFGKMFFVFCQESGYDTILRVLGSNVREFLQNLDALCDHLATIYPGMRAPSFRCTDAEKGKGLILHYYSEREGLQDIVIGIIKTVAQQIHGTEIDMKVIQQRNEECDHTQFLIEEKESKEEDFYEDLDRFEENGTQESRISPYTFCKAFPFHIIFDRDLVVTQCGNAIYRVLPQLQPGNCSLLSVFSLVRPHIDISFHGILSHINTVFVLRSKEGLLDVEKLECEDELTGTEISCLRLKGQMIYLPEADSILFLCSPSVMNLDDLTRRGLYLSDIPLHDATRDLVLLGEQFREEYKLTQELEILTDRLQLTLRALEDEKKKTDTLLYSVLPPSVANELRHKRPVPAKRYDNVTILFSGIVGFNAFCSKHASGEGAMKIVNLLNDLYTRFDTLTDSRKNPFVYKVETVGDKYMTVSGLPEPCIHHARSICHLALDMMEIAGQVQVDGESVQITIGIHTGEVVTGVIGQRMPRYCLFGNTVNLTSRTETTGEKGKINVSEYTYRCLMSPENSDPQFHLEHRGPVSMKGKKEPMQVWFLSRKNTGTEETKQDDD
T1 sequence (Q02108 1-690): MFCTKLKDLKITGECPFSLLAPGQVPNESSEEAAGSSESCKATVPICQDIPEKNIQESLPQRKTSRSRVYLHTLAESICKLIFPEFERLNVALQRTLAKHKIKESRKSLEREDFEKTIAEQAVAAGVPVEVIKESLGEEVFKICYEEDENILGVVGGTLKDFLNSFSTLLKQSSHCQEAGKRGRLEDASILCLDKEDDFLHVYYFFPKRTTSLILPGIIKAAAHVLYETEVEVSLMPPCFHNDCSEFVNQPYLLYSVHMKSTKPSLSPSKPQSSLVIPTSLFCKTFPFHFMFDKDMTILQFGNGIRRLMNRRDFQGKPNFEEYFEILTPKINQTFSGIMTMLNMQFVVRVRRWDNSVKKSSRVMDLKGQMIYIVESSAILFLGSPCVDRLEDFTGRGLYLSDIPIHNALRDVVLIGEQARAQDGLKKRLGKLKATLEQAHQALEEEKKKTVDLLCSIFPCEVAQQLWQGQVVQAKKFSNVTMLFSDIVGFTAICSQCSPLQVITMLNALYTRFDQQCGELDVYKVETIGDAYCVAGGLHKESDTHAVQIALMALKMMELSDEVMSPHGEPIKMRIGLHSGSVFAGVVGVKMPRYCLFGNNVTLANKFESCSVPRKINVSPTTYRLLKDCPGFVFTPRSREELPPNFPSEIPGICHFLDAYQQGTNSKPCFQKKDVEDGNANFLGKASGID
Description: Assay of sGC activity ([32P]cGMP formation from GTP), purified αβ^Cys105 mutant enzyme. To be noted: for sensitivity to SNP after addition of hemin: absence of DTT; for PPIX activation, fold: 1 μM PPIX. It counts as biochemical. The procedure:
(§1) sGC Expression and Purification. […] Purification of sGC was performed as described earlier (26), the disclosure of which is hereby incorporated herein by reference, with the following modifications. Cells were harvested 72 h post infection, resuspended in loading buffer (25 mM triethanolamine, pH 7.5. 10 glycerol, 4 mM MgCl2 and 1 mM phenylmethylsulfonyl fluoride, and 5 μg/ml each of pepstatin A, leupeptin, aprotinin, and chymostatin,) and lysed by sonication. The lysate was subjected to 100,000×g centrifugation for 1 h. The high-speed supernate was loaded on a 60 ml DEAE-Sepharose (Amersham Pharmacia Biotech) column and washed with 60 ml of loading buffer without protease inhibitors. The proteins were eluted with loading buffer containing 250 mM NaCl and the eluate was directly loaded on a 30 ml His-Bind resin (Novagen) column. The column was washed with 60 ml of loading buffer followed by 60 ml of loading buffer with 45 mM imidazole. The enzyme was eluted with 175 mM imidazole and 2 ml fractions were collected. […] The enzyme at this stage was approximately 90–95% pure. To remove imidazole, sGC-containing fractions were diluted 3 fold with 25 mM triethanolamine pH 7.5, loaded on a 2 ml Hi-Trap DEAE-Sepharose column (Amersham Pharmacia Biotech), washed with 10 ml of loading buffer and eluted with 25 mM triethanolamine pH 7.5, 250 mM NaCl, 10 glycerol, 4 mM MgCl2, 0.5 mM EDTA, 0.5 mM EGTA. The enzyme obtained at this stage (95% or greater purity) was used for experiments.
(§2) Assay of sGC Activity. Enzyme activity was assayed by formation of [^32P] cGMP from α[^32P]GTP at 37° C. in a final volume of 100 μl. Incubation medium contained 50 mM triethanolamine-HCl buffer (pH 7.4), 1 mM 3-isobutyl-1-methylxanthine (IBMX), 1 mg/ml BSA. 1 mM cGMP, 3 mM MgCl2, 0.05 mg/ml creatine phosphokinase, 5 mM creatine phosphate, 0.1 mM EGTA. 200 μM GTP (about 10.000 cpm/pmol). The reaction was started by addition of the substrate (GTP) with or without activators. 1 mM DTT, GSH or cysteine were added to the incubation medium before the addition of GTP. Thiol concentration varied in some experiments as indicated. Samples containing 0.2 μg sGC were incubated for 10 or 15 min and the reaction was stopped by addition of 500 μl 150 mM zinc acetate and 500 μl 180 mM sodium carbonate. The pellet of zinc carbonate containing most of the unreacted GTP was removed by centrifugation and the supernatant fractions were loaded onto columns filled with 1 g of neutral alumina. Columns were then eluted with 10 ml 0.1 M Tris-HCl buffer (pH 7.5) and Cherenkov radiation in flow through plus eluate was counted in a LKB liquid scintillation spectrometer. Samples incubated in the absence of sGC were used as a negative control. The concentration of dimethylsulfoxide (DMSO) used as a vehicle for YC-1 was not higher than 0.1 and had no effect on sGC activity as determined previously.

Data set [2] deals with T1, αβ^Cys105 mutant sGC. The experiment in a line: Heme reconstitution of DTT-treated αβ^Cys105 enzyme followed by UV-Vis spectroscopy. The class given is binding. To be noted: data not shown. As to the method: UV-Vis Spectroscopy. All absorbance measurements were recorded with a dual-beam Cecil 9500 spectrophotometer at 25° C. […] Hemin stock solution (5 mM) was prepared in DMSO and was reduced by dilution in 25 mM TEA, pH 7.5 containing 5 mM DTT to a working solution of 500 μM. The reduced heme was kept under argon in a gas-tight vial during the reconstitution.
The enzyme reconstituted with 10 μM hemin was subjected to gel filtration (after GF) or treated for 15 min with 50 μM NOC-7 (with NO) and the spectra recorded, as shown in FIG. 5D.

Data set [3] has as its target T2, wild type sGC (Homo sapiens, UniProt Q02108+Q02153).
T2 construct: made in house; host or cells: Sf9 cells (baculovirus)
T2 sequence (Q02153 1-619): T1 sequence (Q02153 1-619 H105C) with C105H
T2 sequence (Q02108 1-690): T1 sequence (Q02108 1-690)
The experiment in a line: Assay of sGC activity ([32P]cGMP formation from GTP), purified wild type enzyme. It counts as biochemical. As to the method: as §1, §2

For data set [4], the target named is T2, wild type sGC. Particulars: cited from earlier work.
For data set [5], the target named is T3, Sf9 cells expressing wild type sGC (Homo sapiens, UniProt Q02108+Q02153).
T3 construct: expressed in transfected cells; host or cells: Sf9 cells infected with baculoviruses
T3 sequence (Q02153 1-619): T1 sequence (Q02153 1-619 H105C) with C105H
T3 sequence (Q02108 1-690): T1 sequence (Q02108 1-690)
Description: cGMP accumulation in intact Sf9 cells expressing wild type sGC. Particulars: basal, 0.5 mM IBMX. It counts as cell-based. The procedure:
(§3) Assay of cGMP Accumulation in Intact Cells. […] The reaction was terminated by addition of 50 μl of 1 M perchloric acid and cGMP was extracted on ice for 1 h. The extract was centrifuged, neutralized with 2M K2CO3 and used for cGMP determination by radioimmunoassay (9, 27). The pellet was dissolved in 0.1 M NaOH and used for protein assay by the method of Lowry (28).
(§4) Accumulated cGMP was extracted and quantified as described in Materials and Methods. Values are shown as means±s.d. The differences in intracellular accumulation of cGMP in Sf9 cells expressing the wild type enzyme or the mutant form are discussed below.

Data set [6] addresses T4, Sf9 cells expressing αβ^Cys105 sGC (Homo sapiens, UniProt Q02108+Q02153, H105C).
T4 construct: expressed in transfected cells; host or cells: Sf9 cells infected with baculoviruses
T4 sequence (Q02153 1-619 H105C): T1 sequence (Q02153 1-619 H105C)
T4 sequence (Q02108 1-690): T1 sequence (Q02108 1-690)
Description: cGMP accumulation in intact Sf9 cells expressing αβ^Cys105 sGC. It counts as cell-based. As to the method:
as §3, §4

For Hemin [reference compound], the “sensitivity to SNP after addition of hemin” value is given as “did not confer any sensitivity to SNP” in data set [1] (1 μM hemin) and “did not have any significant effect” in data set [1] (10 μM hemin, data not shown). In addition, in data set [1] (presence of 1 mM DTT), the “NO-activation upon addition of hemin” value is recorded as “partially restored its NO-activation”. Further, the “molar excess of reduced hemin at which binding is saturated” value in data set [2] worked out at 13 fold molar excess.
Turning to “Wild Type: recombinant wild type human soluble guanylyl cyclase expressed in Sf9 cells”, the “PPIX activation, fold” value in data set [3] (+DTT) came out at 14 fold; in data set [3] (No DTT), 6 fold. Besides, the Specific activity in data set [3] (+NO (SNP), with DTT (1 mM)) worked out at 1.45 ± 0.1 µmol/min/mg; in data set [3] (+NO (SNP), with DTT (1 mM), listed as wild type), 1.4 µmol/min/mg; in data set [3] (+NO, without DTT) it was 1.41 ± 0.2 µmol/min/mg; in data set [3] (Basal, with DTT (1 mM)) it was 0.02 ± 0.01 µmol/min/mg; in data set [3] (Basal, with DTT (1 mM), listed as Wild type), 0.02 µmol/min/mg; in data set [3] (Basal, with DTT (1 mM), listed as wild type), 0.02 µmol/min/mg. The Specific activity in data set [3] (Basal, without DTT) stood at 0.05 ± 0.02 µmol/min/mg; in data set [3] (Basal, without DTT, listed as Wild type), 0.05 µmol/min/mg. In addition, the “fold activation by NO” value in data set [3] (with DTT) is “(72.5) fold”. For the same substance, the Km in data set [4] (Basal, read-out: GTP-Km) is 65 to 448 µM; in data set [4] (NO, read-out: GTP-Km), 11 to 134 µM; in data set [4] (literature (12, 30–32), read-out: range of GTP-Km measured for the recombinant sGC), 65 to 450 µM. Besides, in data set [4] (recombinant wild type human sGC, previous studies), the “specific activity after exposure to NO” value is around 1.5 µmol/min/mg. For the same substance, the “rate of cGMP accumulation” value in data set [5] came to 0.9 nmol/mg/5 min.
In the case of “αβ^Cys105: heme-deficient, constitutively active human soluble guanylyl cyclase mutant; β subunit carries His105→Cys substitution”, the “basal cGMP accumulation relative to NO-activated cells overexpressing wild type enzyme” value in data set [6] was “about ten times higher”. In data set [6] (basal, 0.5 mM IBMX), the “basal level of cGMP accumulation” value stood at 33 nmol/mg/5 min. The Km in data set [1] (+DTT) was 153 ± 11 µM; in data set [1] (No DTT), ~150 µM and 150 µM. In addition, the “PPIX activation, fold” value in data set [1] (+DTT) came to 5.4 fold; in data set [1] (No DTT), 1.8 fold. The Specific activity came out at 0.44 ± 0.08 µmol/min/mg in data set [1] (+NO, with DTT, after heme reconstitution); 1.2 ± 0.2 µmol/min/mg in data set [1] (+NO, without DTT, after heme reconstitution); 0.12 ± 0.01 µmol/min/mg in data set [1] (Basal, with DTT (1 mM)); 1.2 ± 0.3 µmol/min/mg in data set [1] (Basal, without DTT); 0.0012 ± 0.0003 µmol/min/mg in data set [1] (absence of thiols, n=4 independent purifications); 1e-06 ± 1e-07 µmol/min/mg in data set [1] (sample without any thiols (FIG. 1B, defined as 100)).

The values above are taken from patent publication US7214519B2, “Screening method for identifying heme independent modulators of soluble guanylyl cyclase (sGC) activity using αβCys105 mutant sGC” (Board of Regents of the University of Texas System, priority 2003, dated 2007).
